Assay results: article PMC7102939, “N 1-Methylpseudouridine substitution enhances the performance of synthetic mRNA switches in cells”

Columns and labels:
MS2CP (MS2 coat protein) [1] = molecular target: T1, MS2CP (MS2 coat protein) (bacteriophage MS2, UniProt P03612 2-130); assay: EMSA; 6 mM Mg2+, 2 mM spermidine; EMSA, 1 uM RNA, 4 C 30 min, 12% native PAGE at 4 C; 1x from 5x buffer: U1A 20 mM HEPES pH 7.5, 80 mM KCl, 20 mM NaCl, 2 mM DTT; MS2CP 40 mM HEPES pH 7.5, 10 mM; settings: protein: recombinant; tags: His; chain copies: 2; two hairpins
MS2CP (MS2 coat protein) [2] = molecular target: T1, MS2CP (MS2 coat protein); assay: EMSA; 6 mM Mg2+, 2 mM spermidine; affinity similar to native U; EMSA, 1 uM RNA, 4 C 30 min, 12% native PAGE at 4 C; 1x from 5x buffer: U1A 20 mM HEPES pH 7.5, 80 mM KCl, 20 mM NaCl, 2 mM DTT; MS2CP 40 mM HEPES pH 7.5, 10 mM; settings: protein: recombinant; tags: His; chain copies: 2; two hairpins

T1 sequence (P03612 2-130): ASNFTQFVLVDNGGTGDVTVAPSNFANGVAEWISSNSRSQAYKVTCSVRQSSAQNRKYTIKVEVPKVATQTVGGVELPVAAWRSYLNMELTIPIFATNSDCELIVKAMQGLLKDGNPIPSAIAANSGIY

B1: 2x MS2 aptamer, native U (structured_RNA)
RNA: GGGAGCAGGUGAGGAUCACCCAUCUGCCACGAGCGAGGUGAGGAUCACCCAUCUCGCUCGUGUUCCC
binding result (MS2CP (MS2 coat protein) [1]): binds

B2: 2x MS2 aptamer, m1Ψ (structured_RNA)
RNA: GGGAGCAGGUGAGGAUCACCCAUCUGCCACGAGCGAGGUGAGGAUCACCCAUCUCGCUCGUGUUCCC
modifications: all U replaced by N1-methylpseudouridine
binding result (MS2CP (MS2 coat protein) [2]): binds
